In patent publication CN108059681A (BEIJING GEGEN BIOTECHNOLOGY CO LTD; YICON BEIJING MEDICAL …, dated 2018):

Target: T1, EGFR蛋白 (UniProt P00533 25-645, limits assumed)
T1 construct: The construct is not described; also called 表皮生长因子受体
Assay: affinity constant; method not stated

B1: EGFR ScFv (抗EGFR单链抗体) (scFv)
scFv: QVQLQQWGGGVVQPGRSLRLSCAASGFTFSSYAMHWVRQAPGKGLEWVAVISYDGSNKYYADSVKGRFTISRDNSKNTLYLQMDSLRAEDTAVYYCARSGRYFDWLLPFDYGGGGSGGGGSELALTQPPSASVAPGKTARITCGGNNIGSKSVHWYQQKPGQAPVLVIYYDSDRPSGIPERFSGSNSGNTATLTISRVEAGDEADYYCQVWDSSSDQGVFGGGTQLTVL
notes: Human scFv from a phage library, expressed in E. coli; also called 抗EGFR ScFv
  Kd: 0.284 nM
